Laboratory results as given in PMC12099056, “Targeting the Exonic Circular OGT RNA/O-GlcNAc Transferase/Forkhead Box C1 Axis Inhibits Asparagine- and Alanine-Mediated Ferroptosis Repression in Neuroblastoma Progression” (Research, 2025).

Assays:
[1] = Western blot of FOXC1 level; settings: glycan lost; control: mock, sh-Scb or untreated
[2] = dual-luciferase FOXC1 reporter, SH-SY5Y; settings: glycan lost; control: wild-type Flag-FOXC1
[3] = target: T1, recombinant GST-tagged OGT (wild-type) (human, UniProt O15294 1-1046); assay: co-IP; recombinant GST-tagged OGT and MBP-tagged FOXC1 proteins (wild-type or truncations), co-IP and Western blot; settings: both partners purified
T1 construct: O-GlcNAc transferase (OGT), human cDNA (printed as 3,131 bp) from Genechem; wild-type construct as against truncations
T1 sequence (looked up): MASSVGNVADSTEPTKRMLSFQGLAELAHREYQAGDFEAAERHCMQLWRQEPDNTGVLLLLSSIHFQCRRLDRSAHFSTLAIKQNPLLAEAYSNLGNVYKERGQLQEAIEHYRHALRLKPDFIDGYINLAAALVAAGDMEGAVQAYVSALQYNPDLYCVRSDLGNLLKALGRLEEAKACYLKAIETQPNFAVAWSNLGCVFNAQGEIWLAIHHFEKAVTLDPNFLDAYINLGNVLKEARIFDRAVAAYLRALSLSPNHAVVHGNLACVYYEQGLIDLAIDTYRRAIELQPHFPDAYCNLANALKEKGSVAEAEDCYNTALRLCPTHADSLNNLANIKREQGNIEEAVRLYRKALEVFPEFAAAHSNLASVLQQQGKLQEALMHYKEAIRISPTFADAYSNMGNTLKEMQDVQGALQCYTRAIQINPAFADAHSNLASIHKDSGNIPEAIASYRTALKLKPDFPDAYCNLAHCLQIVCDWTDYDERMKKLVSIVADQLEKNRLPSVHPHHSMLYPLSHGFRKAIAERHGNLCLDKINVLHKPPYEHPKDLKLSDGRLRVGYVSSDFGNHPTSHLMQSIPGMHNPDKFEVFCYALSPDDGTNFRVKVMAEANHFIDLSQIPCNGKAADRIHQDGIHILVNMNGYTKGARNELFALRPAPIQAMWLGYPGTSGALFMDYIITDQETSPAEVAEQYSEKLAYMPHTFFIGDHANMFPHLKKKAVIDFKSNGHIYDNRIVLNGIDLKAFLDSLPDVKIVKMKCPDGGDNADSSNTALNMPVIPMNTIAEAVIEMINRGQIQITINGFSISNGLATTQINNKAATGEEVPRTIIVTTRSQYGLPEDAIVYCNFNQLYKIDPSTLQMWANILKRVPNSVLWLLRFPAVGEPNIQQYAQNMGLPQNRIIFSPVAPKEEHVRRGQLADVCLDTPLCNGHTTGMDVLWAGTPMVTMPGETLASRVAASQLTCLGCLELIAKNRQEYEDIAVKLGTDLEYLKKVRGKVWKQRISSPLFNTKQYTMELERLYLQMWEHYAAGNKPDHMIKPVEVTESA

[4] = CHX chase Western blot (protein stability), SH-SY5Y; settings: glycan lost; control: sh-Scb
[5] = CHX chase Western blot (protein stability); settings: glycan lost; control: untreated

B1: forkhead box C1 (FOXC1): sh-OGT (protein)
parent chain: MQARYSVSSPNSLGVVPYLGGEQSYYRAAAAAAGGGYTAMPAPMSVYSHPAHAEQYPGGMARAYGPYTPQPQPKDMVKPPYSYIALITMAIQNAPDKKITLNGIYQFIMDRFPFYRDNKQGWQNSIRHNLSLNECFVKVPRDDKKPGKGSYWTLDPDSYNMFENGSFLRRRRRFKKKDAVKDKEEKDRLHLKEPPPPGRQPPPAPPEQADGNAPGPQPPPVRIQDIKTENGTCPSPPQPLSPAAALGSGSAAAVPKIESPDSSSSSLSSGSSPPGSLPSARPLSLDGADSAPPPPAPSAPPPHHSQGFSVDNIMTSLRGSPQSAAAELSSGLLASAAASSRAGIAPPLALGAYSPGQSSLYSSPCSQTSSAGSSGGGGGGAGAAGGAGGAGTYHCNLQAMSLYAAGERGGHLQGAPGGAGGSAVDDPLPDYSLPPVTSSSSSSLSHGGGGGGGGGGQEAGHHPAAHQGRLTSWYLNQAGGDLGHLASAAAAAAAAGYPGQQQNFHSVREMFESQRIGLNNSPVNGNSSCQMAFPSSQSLYRTSGAFVYDCSKF
With B1 the expression_or_secretion [1] was “decreases”.

B2: forkhead box C1 (FOXC1): S8A (protein)
parent chain: B1 parent chain
In the case of B2, the “other: transcriptional activity” value [2] is reported as “decreases”.

B3: recombinant MBP-tagged FOXC1 (wild-type) (natural protein, human, UniProt Q12948 1-553, looked up)
chain: B1 parent chain
notes: forkhead box C1 (FOXC1), human cDNA (1,662 bp) from Genechem; wild-type construct as against truncations; the printed AD1 domain is residues 1 to 68; a cDNA of 1,662 bp fits 553 codons and a stop codon
B3: binds [3].

B4: forkhead box C1 (FOXC1): sh-OGT #1 (protein)
parent chain: B1 parent chain
In the case of B4, the degradation_or_half_life [4] is reported as “decreases”.

B5: forkhead box C1 (FOXC1): OSMI-1 (protein)
parent chain: B1 parent chain
With B5 the expression_or_secretion [1] was “decreases” and the degradation_or_half_life [5] was “decreases”.
